B1: Homeobox protein SIX6, residues 134 to 184; numbered along this chain, O95475 (parent)
chain: CFKERTRHLLREWYLQDPYPNPSKKRELAQATGLTPTQVGNWFKNRRQRDR

Variants of: B1
Assay: abundance fitness (aPCA) (normalised: wild type 0, dead -1); higher = more abundant; growth selection in yeast, the domain comes from the species named
Conditions: Homo sapiens

Abundance fitness: each site, then its substitutions
R11: L 0.008, P -0.958, F -0.63, Y 0.097, D -0.612, K 0.066, W -0.129, T 0.054
N41: Y -0.995, W -0.754, T -0.259, L -0.278
W13: K -0.528, Y -0.319, I -0.216
D50: I -0.995, R -0.777, P -0.862, T -0.153, W -0.592, M -0.417, V -0.881
E27: H -0.773, A -0.207, K -0.71, S -0.679, P -0.845, W -0.231
Y14: M -0.825, K -0.683, T -1.06, R -0.821, Q -0.918
F2: P -0.383, K 0.247, A -0.111, Q -0.182, L -0.023, C 0.025, R -0.407
T32: R -0.799, Q -1.01, E -0.519, C -0.174, S -0.312, W -0.873, N -0.84, A -0.572, L -0.384
Q30: L -0.25, H -0.205, E -0.193, A -0.219, C -0.301, V -0.059
S23: N -0.175, G -0.328, M -0.257, Y -0.726, Q -0.028
L15: I -0.019, N 0.153, D -0.418, S -0.03, A 0.023, G -0.112, C 0.49
P36: G -0.664, V -0.17, N -0.542, Q -0.246, L -0.079, D -0.357, H -0.553
E4: G -0.448, T -0.362, H -0.587, I -0.335, W -0.354, C -0.55, L -0.271
R26: T -0.429, P -0.836, I -0.382, Y -0.378
P18: I -0.776, C -0.314, S -0.458, L -0.968, G -0.824, A -0.358, Q -0.234, N -0.696, H -0.442, F -1.11, T -0.915
T35: P -0.877, G -0.886, N -0.581, A -0.846
N21: T 0.155, D 0.218, H 0.337, W -0.817, K -0.417, L -0.149, F -0.839, G -0.238, M -0.049
F43: I -0.649, T -0.927, R -0.92, M -0.94, L -0.904, Y -1.13, K -0.881, N -0.882, C -0.893, A -1.01
L28: F -0.442, G -0.883, R -0.765, H -0.903, I 0.064, V -0.378, C -0.79, S -0.981
R5: M 0.078, Y -0.221, K -0.263, D 0.116, S 0.191, A -0.377, T 0.159
C1: G 0, F 0.095
Y19: K -0.239, N -0.132, A -0.526, R -0.177, S -0.508, C -0.469, H -0.364, I -0.366
K3: R -0.118, D 0.122, S 0.295, E -0.083, T 0.201, F -0.095, N -0.196
A31: V -0.151, G -0.65, P -0.782, F 0.262, Y -0.36, E -0.14, T -0.045, L 0.068, R -0.185, W -0.494, C -0.287
R47: M -0.786, V -0.756, N -0.613, Y -0.637, K -0.861

Reference: the Human Domainome abundance scans (Beltran et al. 2025)
